The target of experiment [1] is T1, cFos bZIP domain (Homo sapiens, UniProt P01100, S177Y).
T1 construct: His-SUMO (N, cleaved yes); made in house; host or cells: E. coli
T1 sequence (P01100 with tags, fused parts or gaps S177Y): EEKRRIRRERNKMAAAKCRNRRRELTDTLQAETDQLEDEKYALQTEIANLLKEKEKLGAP
The experiment is described as follows: CD spectra/thermal denaturation with cFos bZIP (off-target). As to conditions: CD spectra and thermal denaturation. In kind it is binding. Here is the method:
(FIG. 11D). Although this represented a negligible 1.3° C. increase in heterodimer Tm, there was crucially a much larger ΔTm for HingeW/cJun relative to the component peptide denaturation profiles than for A-FosW/cJun. The low thermal stability of the HingeW homodimer results in no observable lower baseline prior to the transition such that the Tm for this component, and thus the average, cannot be determined. However, this ΔTm can be estimated to be ˜40° C., compared to 27.5° C. for A-FosW/cJun. The TBS screen has therefore led to an optimised reduction in homodimersation more so than increased heterodimerisation with the target. This ensures that more antagonist is available as free monomer in solution and therefore in a target-dimerisation competent state. Another difference between the two denaturation profiles is the presence of a double transition for the A-FosW/cJun heterodimer, with a smaller initial transition occurring at ˜30° C.

Experiment [2] deals with T2, cFos bZIP (human, UniProt P01100 137-193).
T2 construct: Purified from a His-SUMO fusion with the tag cleaved off; also called cFos bZIP domain
T2 chain: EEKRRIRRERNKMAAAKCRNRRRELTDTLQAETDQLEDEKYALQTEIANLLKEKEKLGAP
Nature of the experiment: CD spectra 190-260 nm, equimolar mixture compared with the average of the 10 µM component spectra.

Experiment [3] concerns the target T3, cJun bZIP (human, UniProt P05412 252-308, limits assumed).
T3 construct: Purified from a His-SUMO fusion with the tag cleaved off; also called c-Jun bZIP domain; 60 amino acid c-Jun bZIP construct
T3 chain: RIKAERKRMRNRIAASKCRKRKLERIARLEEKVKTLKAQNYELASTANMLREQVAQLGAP
The experiment is described as follows: ITC (PEAQ-ITC), peptide injected into cJun, one site model; Table 7 ITC, run at a lower temperature than the earlier 1/cJun ITC measurement.

Experiment [4] addresses T4, cJun/TRE DNA interaction (Homo sapiens, UniProt P05412, S292Y).
T4 construct: The same 60 amino acid c-Jun bZIP construct was used for all experiments; His-SUMO (N, cleaved yes); made in house; host or cells: E. coli
The experiment is described as follows: CD cJun/TRE DNA antagonism (shift of TRE DNA peak at ~281 nm, Hill fit). Type of experiment: biochemical. As to conditions: HingeW concentrations of 50 and 100 μM.

B1: HingeW (peptide)
peptide: MASLEQRAEELARENEELEKEAEELVVEEDVLEEEIEQLEERNYALRKEIEDLQKQLEKLGAPHHHHHH
notes: Recombinant, capped (MAS at the N-terminus, GAP at the C-terminus) and C-terminally 6xHis-tagged, 69 amino acids; also called peptide 1
As to B1, the “interaction with cFos bZIP” value in experiment [1] is “no interaction”. Moreover, the binding result in experiment [2] is “no binding (tested: 5 µM of each peptide)”. In experiment [3], this molecule registered a Kd of 0.21 nM. Moreover, in experiment [4], the “antagonism of the cJun/TRE interaction” value is recorded as “complete antagonism”.

Values taken from US20250188151A1, “C-JUN ANTAGONIST PEPTIDES” (The University of Bath, priority 2022, published 2025).
